Measurements as given in patent US20060270591A1, “Androgen receptor coregulators” (priority 2002, published 2006).

Key:
[1] = target: T1, PR (Homo sapiens, UniProt P06401); assay: PR transactivation with ARA70 in DU145 cells (Example 3); assay type: cell-based
T1 construct: expressed in transfected cells; host or cells: DU145, PC-3
T1 sequence (P06401 1-933): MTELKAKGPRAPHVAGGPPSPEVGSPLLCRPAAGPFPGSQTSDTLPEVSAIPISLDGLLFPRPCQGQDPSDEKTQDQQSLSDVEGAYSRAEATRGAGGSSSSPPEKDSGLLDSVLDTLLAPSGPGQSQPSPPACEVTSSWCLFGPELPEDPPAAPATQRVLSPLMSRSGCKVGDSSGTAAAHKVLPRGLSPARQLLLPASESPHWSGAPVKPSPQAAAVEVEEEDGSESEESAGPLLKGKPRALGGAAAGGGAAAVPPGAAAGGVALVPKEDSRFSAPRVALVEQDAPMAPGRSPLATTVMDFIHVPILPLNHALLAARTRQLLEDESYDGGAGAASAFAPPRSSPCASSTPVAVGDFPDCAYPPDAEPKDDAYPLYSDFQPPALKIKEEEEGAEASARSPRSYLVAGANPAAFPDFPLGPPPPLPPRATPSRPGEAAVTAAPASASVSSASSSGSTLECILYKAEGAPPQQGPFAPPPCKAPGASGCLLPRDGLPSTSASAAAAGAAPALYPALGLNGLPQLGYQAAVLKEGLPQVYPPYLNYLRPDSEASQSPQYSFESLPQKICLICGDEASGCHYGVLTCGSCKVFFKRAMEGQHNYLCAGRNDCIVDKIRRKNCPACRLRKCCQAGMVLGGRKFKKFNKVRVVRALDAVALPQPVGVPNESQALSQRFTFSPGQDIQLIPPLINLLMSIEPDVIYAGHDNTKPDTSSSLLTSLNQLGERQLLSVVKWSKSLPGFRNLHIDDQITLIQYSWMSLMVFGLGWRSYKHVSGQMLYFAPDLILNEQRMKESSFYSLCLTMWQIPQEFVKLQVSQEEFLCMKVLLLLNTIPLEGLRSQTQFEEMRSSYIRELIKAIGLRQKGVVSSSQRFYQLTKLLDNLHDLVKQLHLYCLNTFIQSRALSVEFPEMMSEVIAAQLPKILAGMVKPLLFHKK
Protocol: 411. Human prostate cancer DU145 and PC-3 cells were maintained in […] (DMEM) containing penicillin (25 U/ml), streptomycin (25 μg/ml), and 5% fetal calf serum (FCS). Human LNCaP cells were maintained in RPMI containing penicillin (25 U/ml), streptomycin (25 μg/ml), and 10% FCS. Transfections were performed using the calcium phosphate precipitation method, as previously described (Dynlacht et al. (1991) Cell 66, 563-576). Briefly, 4×10^5 cells were plated on 60-mm dishes 24 hours before transfection, and the medium was changed to DMEM with 5% charcoal-dextran stripped FCS (CS-FBS) one hour before transfection. Transfection medium contained a constant amount of reporter plasmid and indicated amounts of pSG5-receptor, ARA70, or pCMX-GAL fusion construct using pSG5 as a carrier to provide equal amounts of transfected DNA. Twenty-four hours after transfection, the medium was changed again, and the cells were treated with DHT or other treatments. After another 24 hours, the cells were harvested for chloramphenicol transferase (CAT) or luciferase assays. At least three independent experiments were carried out in each case. Superfect (Qiagen) was used for transfection in LNCaP cells. The transfection conditions followed the manufacturer's protocol. […]

[2] = target: T2, GR (Homo sapiens, UniProt P04150); assay: GR transactivation reporter assay with SV; assay type: cell-based; design: expressed in transfected cells; host or cells: DU145, PC-3, HepG2; conditions: MMTV-Luc; compared to AR
T2 sequence (P04150 1-777): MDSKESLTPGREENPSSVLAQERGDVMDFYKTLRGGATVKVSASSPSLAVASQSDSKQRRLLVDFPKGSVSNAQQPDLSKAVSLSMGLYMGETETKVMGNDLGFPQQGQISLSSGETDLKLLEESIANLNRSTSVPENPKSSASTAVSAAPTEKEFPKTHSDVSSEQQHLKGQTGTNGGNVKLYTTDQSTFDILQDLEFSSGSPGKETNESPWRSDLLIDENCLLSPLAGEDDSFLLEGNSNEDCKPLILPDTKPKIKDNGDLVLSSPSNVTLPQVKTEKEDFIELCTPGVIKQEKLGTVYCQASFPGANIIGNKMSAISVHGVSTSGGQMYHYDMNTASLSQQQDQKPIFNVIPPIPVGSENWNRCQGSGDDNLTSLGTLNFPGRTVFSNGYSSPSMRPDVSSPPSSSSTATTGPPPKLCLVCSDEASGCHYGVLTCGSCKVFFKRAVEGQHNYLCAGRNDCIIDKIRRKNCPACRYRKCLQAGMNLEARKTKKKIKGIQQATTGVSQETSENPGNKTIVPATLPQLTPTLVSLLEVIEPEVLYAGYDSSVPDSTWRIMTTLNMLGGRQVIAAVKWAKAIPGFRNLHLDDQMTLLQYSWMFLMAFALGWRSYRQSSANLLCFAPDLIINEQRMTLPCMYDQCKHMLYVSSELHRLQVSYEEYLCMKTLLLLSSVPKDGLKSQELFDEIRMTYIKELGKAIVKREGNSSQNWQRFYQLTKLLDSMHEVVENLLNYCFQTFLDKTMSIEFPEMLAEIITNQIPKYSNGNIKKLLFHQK
Protocol: 42. […] (A) The interaction of SV with AR, GR, PPAR-γ and ER-α is tested in mammalian two-hybrid assay. One μg plasmids expressing Gal4(DBD)-AR, GR, PPAR-γ or ER-α was co-transfected with 4 μg plasmids expressing VP16 or VP16-SVn to COS-1 cells. […] The assay method was the same as described in FIG. 29. Relative activities of ligand treatment to EtOH treatment are shown. (B) The coactivation function of SV in different receptors was assayed using reporter gene study. MMTV-Luc, PPRE-Luc, ERE-Luc are the reporter genes for AR, GR, PPAR-γ, and ER-α respectively. Lanes 1, 5, 9 and 13 are regarded as 1 fold in each panel.
475. In AR transactivation activity assays, transfections were performed using SuperFect (Qiagen, Chatsworth, Calif.) following protocols described in manual provided by Qiagen. Briefly, cells were plated on 35 mm dishes and after 24 h were transfected using the SuperFect kit. The total DNA amount was adjusted to 2 μg with pSG5 or pEGFP vectors. The medium was changed to DMEM with 10% CD-FBS 2 h after transfection. After 24 h, the DMEM with 10% CD-FBS was changed again, and the cells were treated with various steroids. Cells were harvested after 24 h for dual-luciferase assay as described in protocol provided by Promega. At least three independent experiments were carried out in each case.

enhancement of PR transactivation [1] | effect on the transactivation of GR [2] | Substance
2-3 fold | – | ARA70: ligand-enhanced AR coregulator, full length ARA70
– | less enhancement effect | SV: supervillin, 205 kDa actin binding protein; bovine SV (a.a. 1-1792) used in reporter assays
